From patent US20240043859A1, “HERBICIDE-RESISTANT PROTEIN, AND GENE AND USE THEREOF” (QINGDAO KINGAGROOT CHEMICAL COMPOUND CO., LTD., priority 2020, published 2024)
“Also recorded” adds a separate entry of the source.

Columns and labels:
[1] = Chromogenic reaction of degrading herbicides in bacteria: 2,4-D; type: cell-based, Escherichia coli; conditions: recombinant E. coli expressing the gene, 2,4-D added to the medium, red = phenols
In short: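 E. coli BL21(DE3) carrying AAD12 or empty pET15b was induced with 0.1 mM IPTG plus 2 mM α-ketoglutarate and given 0.5 mM 2,4-D, then grown overnight at 28 °C. Supernatant was treated with pH 10 borate, potassium ferricyanide and 4-aminoantipyrine for 5 min at room temperature; red colour read at A510.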

[2] = type: cell-based, Escherichia coli
[3] = Chromogenic reaction of degrading herbicides in bacteria: triclopyr; type: cell-based, Escherichia coli; conditions: recombinant E. coli expressing the gene
Method: To transform the plasmids to be tested, an AAD12-expressing plasmid and a blank control plasmid pET15b were respectively transformed into the protein expression E. coli BL21(DE3) strains. A monoclone was selected and inoculated in a 10 ml centrifuge tube with 3 ml LB medium, and cultivated at 37° C., 200 rpm for 6-8 hours. […] The temperature was switched to 28° C. and the cultivation continued overnight. In the next morning, 200 μL of each bacteria solution was taken and centrifuged to precipitate thallus, 180 μL of the supernatant was taken and added in a 96-well plate, and 20 μL of borate buffer of pH 10 was added. Then the mixture was added with 2 μL of 8% potassium ferricyanide and mixed well, followed by adding 2 μL of 2% 4-aminoantipyrine, and placed at room temperature for 5 min to observe the color and detect the A510 value. […]

Arabidopsis thaliana [4] = experiment: Herbicide resistance of transgenic Arabidopsis thaliana seedlings on plate medium (root growth); type: in vivo; conditions: for Resistance of transgenic Arabidopsis thaliana: 2,4-D / Resistance of transgenic Arabidopsis thaliana: MCPA: Arabidopsis overexpressing the gene
In short: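 T2 lines overexpressed AAD from the AtUbi10 promoter with the MAS terminator, with hygromycin selection; two events per construct were tested on plates against 2,4-D, 2,4-DB sodium and MCPA. The screening medium was MS plus 0.3 μM 2,4-D. Seeds were stratified 3 days at 4 °C, grown at 22 °C on 16 h light, and root elongation was compared with wild type after one week.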

Arabidopsis thaliana [5] = experiment: as above; type: in vivo; conditions: plate medium with 2,4-D (0.3 μmol)

B1: QYD43: AAD-like enzyme, SEQ ID NO. 85 (protein)
chain: MRRLHIAPTGATLGATVTGVSLAALDEPTWQAIYRAWLEHALLIFPGQHLSNQQQIGFARRFGAIERIGGGEIVAISNVKADGRVRAHTPAEWDDMMKVIVGNMAWHADSTYMPVMAKGAVFSGELVPTERGETSFADMRAAYDALDQATRALVHQRSAHHSLVYSQSKLGHVPGAQSAYLGYGMDQTTAPLRPLVKVHPETGRQSLLIGRHAHAIPGMDPAESEVFLEGLVEWACQPPRIHTHHWTAGDVVLWDNRCLLHRAMPWDLAQPRVMWHSRLAGDPVAEAALPPVAPAAATH
modifications: Synthetic polypeptide, QYD43, D43
Chromogenic reaction of degrading herbicides in bacteria: 2,4-D [1]: Yes | Chromogenic reaction of degrading herbicides in bacteria: 2,4-D ([1]; listed as D43): could degrade 2,4-D; also recorded: capable of degrading 2,4-D | Chromogenic reaction of degrading herbicides in bacteria: MCPA [2]: Yes | Chromogenic reaction of degrading herbicides in bacteria: Triclopyr [3]: Yes | Chromogenic reaction of degrading herbicides in bacteria: Triclopyr ([3]; listed as D43): slight degradation | Resistance of transgenic Arabidopsis thaliana: 2,4-D (Arabidopsis thaliana [4]): Yes | Resistance of transgenic Arabidopsis thaliana: MCPA (Arabidopsis thaliana [4]): Yes | 2,4-D resistance of T1 generation transgenic seedlings (seminal root growth) (Arabidopsis thaliana [5]): showing tolerance to 2,4-D

B2: QYD45: AAD-like enzyme, SEQ ID NO. 89 (protein)
chain: MARPFDIAPLDATFGAIVTGVKLAGLDEACWRALHAAWLQYALLVFPNQHLARVEQIAFAKRFGPLEFEMAAISNVRADGSLRVETDNDDMMKILKGNMGWHADSTYMPVQAKGAVFSAEVVPTIGGQTGFADMRAAYDALDEDLKARVETLQAYHSLHYSQSRLGHETKKADGEYSGYGLHDGPVPLRPLVKTHPETGRKSLLIGRHAHAIPGMEPGESERFLQELIDFACQPPRVYRHNWAPGDAVLWDNRCLLHQATPWDMTQKRIMWHSRIAGDAAGETALAH
modifications: Synthetic polypeptide, QYD45, D45
Chromogenic reaction of degrading herbicides in bacteria: 2,4-D [1]: Yes | Chromogenic reaction of degrading herbicides in bacteria: 2,4-D ([1]; listed as D45): could degrade 2,4-D; also recorded: capable of degrading 2,4-D | Chromogenic reaction of degrading herbicides in bacteria: MCPA [2]: Yes | Resistance of transgenic Arabidopsis thaliana: 2,4-D (Arabidopsis thaliana [4]): Yes | Resistance of transgenic Arabidopsis thaliana: MCPA (Arabidopsis thaliana [4]): Yes | MCPA resistance of T1 generation transgenic seedlings (Arabidopsis thaliana [4]; plate medium with MCPA (0.1 μmol)): obvious resistance | 2,4-DB sodium resistance of T2 generation transgenic plants (Arabidopsis thaliana [4]; plate medium, 2,4-DB sodium (0.7 μmol), two events per transformant): obvious resistance | MCPA resistance of T2 generation transgenic plants (Arabidopsis thaliana [4]; plate medium, MCPA (0.1 μmol), two events per transformant): obvious resistance | 2,4-D resistance of T1 generation transgenic seedlings (seminal root growth) (Arabidopsis thaliana [5]): showing tolerance to 2,4-D; also recorded: lower resistance

B3: QYD46: AAD-like enzyme, SEQ ID NO. 91 (protein)
chain: MARAFYITPLDATFGAVVTGVKLVDLDDAGWRELHAAWLQYALLVFPGQYLKRDQQIAFARRFGPLEFEMVAISNVRSDGTLRVEKDNDDVMKILKGNMGWHADSTYMPVQAKGAVFSAEVVPTIGGHTGFADMRAAYDALDDVRKARVENLQARHSLHYSQSKLGHETKKSDGEYHGYGLHDGPVPLRPLVKTHPETGRKSLLIGRHAHAIPGMDGPESEAFLQELIDFACQPPRIYHHDWAAGDAVLWDNRCLLHQATPWDMTQKRIMWHSRIAGDPASESALAH
modifications: Synthetic polypeptide, QYD46, D46
Chromogenic reaction of degrading herbicides in bacteria: 2,4-D [1]: Yes | Chromogenic reaction of degrading herbicides in bacteria: 2,4-D ([1]; listed as D46): could degrade 2,4-D; also recorded: capable of degrading 2,4-D | Chromogenic reaction of degrading herbicides in bacteria: MCPA [2]: Yes | Chromogenic reaction of degrading herbicides in bacteria: Triclopyr [3]: Yes | Chromogenic reaction of degrading herbicides in bacteria: Triclopyr ([3]; listed as D46): slight degradation | Resistance of transgenic Arabidopsis thaliana: 2,4-D (Arabidopsis thaliana [4]): Yes | Resistance of transgenic Arabidopsis thaliana: MCPA (Arabidopsis thaliana [4]): Yes | 2,4-D resistance of T1 generation transgenic seedlings (seminal root growth) (Arabidopsis thaliana [5]): showing tolerance to 2,4-D

B4: QYD47: AAD-like enzyme, SEQ ID NO. 93 (protein)
chain: MATRLEIKPLDATFGAVVTGIKLAEIDEATWRELHATWLKYALLVFPGQFLKRDQQIAFAKHFGPLEFEMAAISNVKSDGTLRIEKDNDDVMKILKGNMGWHADSTYMPVQAKGAVFSAEEVPTVGGQTGWADMRAAYDALDDARRARVETLQAYHSLHYSQSKLGHETRKSDGEYSGYGLHNGPIPLRPLVKTHPETGRKSLLIGRHAHDIPGMDREESQSFLEELVDFACRPPRIYHHDWAAGDAVVWDNRCLLHQATPWDMTQRRIMWHSRIAGDPASESALAA
modifications: Synthetic polypeptide, QYD47, D47
Chromogenic reaction of degrading herbicides in bacteria: 2,4-D [1]: Yes | Chromogenic reaction of degrading herbicides in bacteria: 2,4-D ([1]; listed as D47): could degrade 2,4-D; also recorded: capable of degrading 2,4-D | Chromogenic reaction of degrading herbicides in bacteria: MCPA [2]: Yes | Chromogenic reaction of degrading herbicides in bacteria: Triclopyr [3]: Yes | Chromogenic reaction of degrading herbicides in bacteria: Triclopyr ([3]; listed as D47): slight degradation | Resistance of transgenic Arabidopsis thaliana: 2,4-D (Arabidopsis thaliana [4]): Yes | Resistance of transgenic Arabidopsis thaliana: MCPA (Arabidopsis thaliana [4]): Yes | 2,4-D resistance of T1 generation transgenic seedlings (seminal root growth) (Arabidopsis thaliana [5]): showing tolerance to 2,4-D

B5: QYD48: AAD-like enzyme, SEQ ID NO. 95 (protein)
chain: MTDRLEIKPLDATFGAVVTGIRLAEIDEPTWRELHATWLKYALLVFPGQHLQRDQQIAFAKRFGPLEFEMAAISNVKSDGTLRIEEDNDDMMKILKGNMGWHADSTYMPVQAKGAVFSAEEVPTIGGQTGWADMRAAYDALDEARKAQIESLQAYHSLHYSQSQLGHQTGKSDGEYSGYGLHDGPVPLRPLVKTHPETGRKSLLIGRHAHNIPGMDRDEARRLLEGLIDFACQPPRIYHHDWAAGDAVVWDNRCLLHQATPWDMTQRRIMWHSRIAGDPASESALAA
modifications: Synthetic polypeptide, QYD48, D48
Chromogenic reaction of degrading herbicides in bacteria: 2,4-D [1]: Yes | Chromogenic reaction of degrading herbicides in bacteria: 2,4-D ([1]; listed as D48): could degrade 2,4-D; also recorded: capable of degrading 2,4-D | Chromogenic reaction of degrading herbicides in bacteria: MCPA [2]: Yes | Chromogenic reaction of degrading herbicides in bacteria: Triclopyr [3]: Yes | Chromogenic reaction of degrading herbicides in bacteria: Triclopyr ([3]; listed as D48): slight degradation | Resistance of transgenic Arabidopsis thaliana: 2,4-D (Arabidopsis thaliana [4]): Yes | Resistance of transgenic Arabidopsis thaliana: MCPA (Arabidopsis thaliana [4]): Yes | 2,4-D resistance of T1 generation transgenic seedlings (seminal root growth) (Arabidopsis thaliana [5]): showing tolerance to 2,4-D

B6: QYD49: AAD-like enzyme, SEQ ID NO. 97 (protein)
chain: MARTFDIEPLAGTTFGAVVRGMKVAILDDAGWRDLYAAWLKYALLVFPGQHLKRDEQIAFAKRFGALEFEMAALSNVKSDGTLRQEKDNDDMMKILKGNMGWHADSTYMPVQAKGAVFSAEIVPGAGGQTGFADMRAAYDALDAGRKAKVERLAAHHSLHYSQSKLGHQTKKQDGEYSGYGLHDGPVPLRPLVKTHPETGRKSLLIGRHAHNIPGMDKAESERLLQELVDFACQPPRVYHHDWTAGDAVVWDNRCLLHQATPWDMTQPRVMWHSRIAGDPRSEAALGVTAVSAAASG
modifications: Synthetic polypeptide, QYD49, D49
Chromogenic reaction of degrading herbicides in bacteria: 2,4-D [1]: Yes | Chromogenic reaction of degrading herbicides in bacteria: 2,4-D ([1]; listed as D49): could degrade 2,4-D; also recorded: capable of degrading 2,4-D | Chromogenic reaction of degrading herbicides in bacteria: MCPA [2]: Yes | Resistance of transgenic Arabidopsis thaliana: 2,4-D (Arabidopsis thaliana [4]): Yes | Resistance of transgenic Arabidopsis thaliana: MCPA (Arabidopsis thaliana [4]): Yes | 2,4-D resistance of T1 generation transgenic seedlings (seminal root growth) (Arabidopsis thaliana [5]): showing tolerance to 2,4-D
